Reference: patent US20120058118A1 (Boehringer Ingelheim, published 2012)
Where two headings read alike, the source gives them in different places. Ends that are not written are not given here. * marks the point of attachment. Biotin = O=C1N[C@H]2[C@H](CS[C@H]2CCCCC(=O)*)N1

What was measured:
[1] = biological target: T1, human A-beta(1-40) peptide, monomeric (BAM) (human, biotin at the C-terminus in capture ELISA, SPR and TR-FRET; not biotinylated where coated directly (Example 7)); assay: BAM ELISA
T1 construct: synthetic peptide (Anaspec), TFA/HFIP treated to give monomer; also called monomeric A-beta

A-beta(1-16) peptide = biological target: T2, A-beta(1-16) peptide (human); assay: SPR on captured A-beta(1-16)
T2 construct: Bachem peptide captured on streptavidin chip; also called monomeric A-beta(1-16)
T2 peptide: DAEFRHDSGYEVHHQK-biotin
Experimental: (§1) After capturing, surfaces are blocked by injecting an excess (200 μg/ml) of d-biotin for 180 s at 5 μl/min. A reference surface is washed and blocked with d-biotin. HBS-EP+buffer is used as the running buffer and experiments are performed at 25° C. For off-rate screening, periplasmic extracts of VHHs are injected at a 10-fold dilution for 2 min at 45 μl/min and are allowed to dissociate for 10 min. […] Between different VHH samples, the surfaces are regenerated with regeneration buffer (50 mM NaOH) for 25 s at 45 μl/min followed by 10 s 6M GuHCl at 45 μl/min if regeneration is incomplete. […] Data are double referenced by subtraction of the curves on the reference channel and of a blank running buffer injection. Sensorgrams are evaluated by fitting a 1:1 dissociation model using the Biacore T100 Evaluation software v1.1.1.

[2] = biological target: T1, human A-beta(1-40) peptide, monomeric …; assay: ABII002 TR-FRET competition assay
[3] = biological target: T1, human A-beta(1-40) peptide, monomeric …; assay: ABII002 TR-FRET competition assay; remark: listed apart in the source
[4] = biological target: T1, human A-beta(1-40) peptide, monomeric …; assay: ABII050 TR-FRET competition assay
[5] = biological target: T3, aggregated A-beta(1-40) peptide (BAA) (human); assay: BAA ELISA
T3 construct: also called A-beta peptide aggregates

[6] = biological target: T1, human A-beta(1-40) peptide, monomeric …; assay: TR-FRET competition, labelled ABII42D4
[7] = biological target: T1, human A-beta(1-40) peptide, monomeric …; assay: cell-based or functional assay
A-beta(12-28) peptide = biological target: T4, A-beta(12-28) peptide (human); assay: SPR on captured A-beta(12-28)
T4 construct: Bachem peptide captured on streptavidin chip; also called monomeric A-beta(12-28); central region
T4 peptide: Biotin-VHHQKLVFFAEDVGSNK
Experimental: as §1

[8] = biological target: T1, human A-beta(1-40) peptide, monomeric …; assay: TR-FRET competition, labelled ABII60A10
[9] = biological target: T1, human A-beta(1-40) peptide, monomeric …; assay: 42D4 TR-FRET assay (labelled ABII42D4)
[10] = biological target: T1, human A-beta(1-40) peptide, monomeric …; assay: 60A10 TR-FRET assay (labelled ABII60A10)
[11] = biological target: T3, aggregated A-beta(1-40) peptide (BAA); assay: BAA ELISA; remark: listed apart in the source
[12] = biological target: T1, human A-beta(1-40) peptide, monomeric …; assay: BAM ELISA; remark: listed apart in the source
[13] = biological target: T1, human A-beta(1-40) peptide, monomeric …; assay: TR-FRET competition
[14] = biological target: T1, human A-beta(1-40) peptide, monomeric …; assay: TR-FRET competition; remark: listed apart in the source
[15] = biological target: T1, human A-beta(1-40) peptide, monomeric …; assay: cell-based or functional assay; remark: listed apart in the source
[16] = biological target: T1, human A-beta(1-40) peptide, monomeric …; assay: TR-FRET competition, mean IC50
[17] = biological target: T1, human A-beta(1-40) peptide, monomeric …; assay: TR-FRET competition; labelled competitor not given
[18] = biological target: T5, human A-beta peptide (residues 1-24) (human); assay: crystal structure
T5 construct: used for co-crystallisation; also called A-beta(1-24)
Experimental: The complex is concentrated by diafiltration to a concentration of 4 mg/ml. Crystallization trials are set up as sitting drop vapour diffusion experiments by mixing 200 nl of protein with 200 nl of reservoir solution against a reservoir volume of 100 μl. […] Data are collected at the beamline 6SA of the swiss light source at the Paul-Scherrer Institute in Villigen, Switzerland.

[19] = biological target: T1, human A-beta(1-40) peptide, monomeric …; assay: ELISA, format not stated
[20] = biological target: T1, human A-beta(1-40) peptide, monomeric …; assay: TR-FRET competition and SPR
[21] = biological target: T1, human A-beta(1-40) peptide, monomeric …; assay: TR-FRET competition, labelled ABII42D4; remark: listed apart in the source

T5 sequence (peptide, as listed by the source): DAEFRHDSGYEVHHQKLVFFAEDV

B1: ABII60D2 (VHH)
VHH: EVQLVESGGGSVQAGGSLRLSCAYSGSIFSIKTMGWYRQAPGKQRELVGRITSGDSTNYADSVKGRFTISRDKAKTTVYLQMNNLKPEDTAVYYCAARRPWPRSDVWGQGTQVTVSS
EC50 [1]: > 1000 nM | binding result (A-beta(1-16) peptide): binds

B2: ABII315-PEG20 (designed binder)
chain: EVQLLESGGGLVQPGGSLRLSCAASGRTFNNYNMGWFRQAPGKGREFVAAVSRSGVSTYYADSVKGRFTISRDNSKNTVYLQMNSLRPEDTAVYYCAAAYRGTAINVRRSYSSWGQGTLVTVSSGGGGCGGGSEVQLLESGGGLVQPGGSLRLSCVHSGPTFRTDTMGWFRQAPGKGREFVAAVTWNSGRINYADSVKGRFTISRDNSKNTAYLQMNSLRPEDTAVYYCAAHRFVVGGNRVEDWRYWGQGTLVTVSS
modifications: PEG20 on the Cys at position 5 of the 9GS linker
notes: 059-9GSC-035; purified as His6-tagged construct before PEGylation
fold improved IC50 against monovalent ABII035 [2]: 27 fold | fold improved potency against 3D6 IgG [2]: 14.6 fold | IC50 [3]: 0.13 nM | IC50 [4]: 0.28 nM

B3: ABII5D2 (VHH)
VHH: EVQLVESGGGLVQAGGSLRLSCAASGRTFSSYAMGWVRQAPGKERELVATISQSGGLRSYADSVKGRFTISRDNAKNTVYLQMNSLTPGDTAVYYCAAQARATAWSPQRVDYWGQGTQVTVSS
EC50 [5]: 11.7 nM | EC50 [1]: 54.1 nM | binding result (A-beta(1-16) peptide): binds | IC50 [6]: > 1000 nM

B4: ABII42B10 (VHH)
VHH: EVQLVESGGGLVQRGGSLRLSCAASGRTFSNLNMGWFRQAPGKEREFQAAISRSGGTTYYADSVKGRFTISRDNAKSTVFLQMNSLKPEDTAVYYCAAASPGGPINYGRAYDSWGQGTQVTVSS
EC50 [5]: 2.1 nM | EC50 [1]: 10.8 nM | inhibition of peptide aggregation (ThT fluorescence), 28 µM VHH [7]: 77% | binding result (A-beta(12-28) peptide): binds | IC50 [8]: 85.6 nM

B5: ABII42D4-35GS-ABII60A10 (designed binder)
chain: EVQLVESGGGLVLAGGSLRLSCVHSGPTFSTDTMGWFRQAPGKEREFVAAVTWNSGRTNYADSVKGRFTVSRDNTRNAAYLQMSGLKDEDTAVYYCTAHRLVVGGTSVGDWRYWGQGTQVTVSSGGGGSGGGGSGGGGSGGGGSGGGGSGGGGSGGGGSEVQLVESGGGLVQAGGSLRLSCAASGRTFNNYNMGWFRQAPGKEREFVAAVSRSGVSTYYADSVKGRFTISRDNAKNAVYLQMNSLKPEDTAIYYCGAAYRGTAINVRRSYDSWGQGTQVTVSS
notes: biparatopic VHH construct
IC50 [9]: 0.05 nM | IC50 [10]: 0.084 nM

B6: ABII60A10 = ABII050 (VHH)
VHH: EVQLVESGGGLVQAGGSLRLSCAASGRTFNNYNMGWFRQAPGKEREFVAAVSRSGVSTYYADSVKGRFTISRDNAKNAVYLQMNSLKPEDTAIYYCGAAYRGTAINVRRSYDSWGQGTQVTVSS
EC50 [5]: 0.8 nM | EC50 [1]: 4.9 nM | EC50 [11]: 0.8 nM | EC50 [12]: 4.9 nM | fold improved IC50 against reference VHH 2D2 [13]: 36 fold | inhibition of peptide aggregation (ThT fluorescence), 28 µM VHH [7]: 80% | IC50 [14]: 11.1 nM | Aggregation inhibition (% inhibition at 26 µM) [15]: 80% | binding result (A-beta(12-28) peptide): binds | IC50 [16]: 19 nM | IC50 [4]: 6.3 nM | IC50 [9]: > 1000 nM | IC50 [8]: 11.1 nM | IC50 [10]: 30 nM | IC50 [17]: 19 nM

B7: ABII059 (VHH)
VHH: EVQLLESGGGLVQPGGSLRLSCAASGRTFNNYNMGWFRQAPGKGREFVAAVSRSGVSTYYADSVKGRFTISRDNSKNTVYLQMNSLRPEDTAVYYCAAAYRGTAINVRRSYSSWGQGTLVTVSS
notes: humanized variant of ABII050
binding result [18]: binds | fold difference of EC50 against the 2D2 and 2G6 VHHs [19]: > 50 fold | Aggregation inhibition (% inhibition at 26 µM) [15]: 80% | IC50 [16]: 33 nM | IC50 [4]: 12.8 nM | IC50 [17]: 33 nM

B8: ABII60A10-35GS-ABII42D4 (designed binder)
chain: EVQLVESGGGLVQAGGSLRLSCAASGRTFNNYNMGWFRQAPGKEREFVAAVSRSGVSTYYADSVKGRFTISRDNAKNAVYLQMNSLKPEDTAIYYCGAAYRGTAINVRRSYDSWGQGTQVTVSSGGGGSGGGGSGGGGSGGGGSGGGGSGGGGSGGGGSEVQLVESGGGLVLAGGSLRLSCVHSGPTFSTDTMGWFRQAPGKEREFVAAVTWNSGRTNYADSVKGRFTVSRDNTRNAAYLQMSGLKDEDTAVYYCTAHRLVVGGTSVGDWRYWGQGTQVTVSS
notes: biparatopic VHH construct
IC50 [9]: 0.055 nM | IC50 [10]: 0.091 nM

B9: reference VHH 2G6 (VHH)
VHH: QVKLEESGGGLVQPGGSLRLSCAASGFTFSNYWMYWVRQAPGKGLEWVSTISPRAANTYYADSVKGRFTISRDNAKNTLYLQMNSLEPDDTALYYCAKSLRYRDRPQSSDFLFWRQGTQVTVSS
notes: from WO2006/40153
EC50 [5]: 7.2 nM | EC50 [1]: 98.6 nM | EC50 [11]: 7.2 nM | EC50 [12]: 98.6 nM | IC50 [14]: > 1000 nM | Aggregation inhibition (% inhibition at 26 µM) [15]: 29% | IC50 [6]: > 1000 nM

B10: ABII42G10 (VHH)
VHH: EVQLVESGGGLVQAGGSLRLSCLFSGRTFSTNGVGWFRQVPGKEREFVSAINWSGSKTNYAEPVKGRFTISRDNAKNTAYLQMNSLKPEDTAVYYCAAYRTSISRYEYAYWGQGTQVTVSS
EC50 [5]: 49.5 nM | EC50 [1]: 87 nM | binding result (A-beta(1-16) peptide): binds | IC50 [6]: > 1000 nM

B11: ABII111B5_E109Q (VHH)
VHH: EVQLVESGGGLVLAGGSLRLSCVHSGPTFRTDTMGWFRQAPGKEREFVAAVTWNSGRINYADSVKGRFTVSRDNTRNAAYLQMSGLKDEDTAVYYCTAHRFVVGGNMVQDWRYWGQGTQVTVSS
notes: targeted mutant
fold improvement of IC50 and KD over original ABII42D4 [20]: > 10 fold | IC50 [21]: 3.7 nM

B12: ABII111B5_M107E (VHH)
VHH: EVQLVESGGGLVLAGGSLRLSCVHSGPTFRTDTMGWFRQAPGKEREFVAAVTWNSGRINYADSVKGRFTVSRDNTRNAAYLQMSGLKDEDTAVYYCTAHRFVVGGNEVEDWRYWGQGTQVTVSS
notes: targeted mutant
fold improvement of IC50 and KD over original ABII42D4 [20]: > 10 fold | IC50 [21]: 4.3 nM

B13: ABII60H5 (VHH)
VHH: EVQLVESGGGLVQVGGSLRLSCAASGNIGSINAMGWYRQAPGKEREWVAIITNSGSVNYGPDSVKGRFTISGDNAKNRVYLQMDSLKPEDTAVYYCAAESWGRSPLKYLGQGTQVTVSS
EC50 [1]: > 1000 nM | binding result (A-beta(1-16) peptide): binds

B14: ABII14D4 (VHH)
VHH: EVQLVESGGGLVQAGGSLRLSCAASGRTFSTYNMAWFRHAPGKEREFVAAISRSGGSTYYVDSVKGRFTISRDNAKNTVYLQMNSLKPEDTAIYYCAAAPRGRSIVTTATYDYWGQGTQVTVSS
EC50 [5]: 6.8 nM | EC50 [1]: 124 nM | inhibition of peptide aggregation (ThT fluorescence), 28 µM VHH [7]: 78% | binding result (A-beta(12-28) peptide): binds | IC50 [8]: 744 nM
